Experiment [1] concerns the target YpSPTpSPS (CTD-S2/S5), doubly phosphorylated CTD peptide (human). In words: fluorescence anisotropy. Background: In fluorescence polarisation assays a small probe gives low polarisation when free and higher when bound to something large.
In experiment [2] the target is WFYpSPFLE (Pintide), rhodamine-labeled. In words: fluorescence anisotropy, labeled peptide constant, protein varied.
Experiment [3] deals with YpSPTpSPS (CTD-S2/S5), doubly phosphorylated CTD peptide (human). Described as above.
The target of experiment [4] is YSPTpSPS (CTD-S5), rhodamine-labeled (human). The description is as above.
For experiment [5], the target named is PPGpSPP (Myt1-S416), rhodamine-labeled (human). The description is as above.
For experiment [6], the target named is VPRpTPV (Cdc25c-T48), rhodamine-labeled (human). The experiment is described as above.
The target in experiment [7] is LYRpSPS (Cdc25c-S214), rhodamine-labeled (human). Described as above.
Experiment [8] concerns the target GSSpSPV (Wee1-S123), rhodamine-labeled (human). Described as above.
Experiment [9] concerns the target PPApTPP (Myt1-T412), rhodamine-labeled (human). The description is as above.
In experiment [10] the target is YLGpSPI (Cdc25c-S168), rhodamine-labeled (human). Described as above.
Experiment [11] deals with STSpTPR (Myt1-T455), rhodamine-labeled (human). Described as above.
The target of experiment [12] is YpSPTSPS (CTD-S2), rhodamine-labeled (human). The experiment is described as above.

4 substances from patent US7127357 can be followed below.

The substance “Pin1 Trp-34 to Phe mutant (from UniProt Q13526 1-163) (enzyme)” came in with a fold reduction in binding affinity (against wild type Pin1) in experiment [1] of 6 fold.

Turning to “isolated PPIase domain of human Pin1 (from UniProt Q13526 50-163) (enzyme)”, the Kd in experiment [2] turned out to be 86 µM; in experiment [3], 390 µM.

Consider “human Pin1 (full length, wild type) (from UniProt Q13526 1-163) (enzyme)”, for which the Kd in experiment [4] was found to be 30 µM; in [2], 17 µM; in experiment [5], 80 µM; in experiment [6] it was 4.9 µM; in experiment [7], 47 µM; in experiment [8], 73 µM. Moreover, the Kd in experiment [9] came to 12 µM; in [10] it was 69 µM; in [11], 46 µM; in [3], 10 µM; in [12], 61 µM.

“isolated WW domain of human Pin1 (from UniProt Q13526 1-39)”: the Kd in experiment [4] came out at 34 µM; in experiment [2], 44 µM; in experiment [5] it was 126 µM; in experiment [6] it was 7.7 µM; in experiment [7], 72 µM; in experiment [9], 15 µM. The Kd in experiment [10] worked out at 91 µM; in experiment [11], 39 µM; in experiment [3] it was 34 µM; in experiment [12], 110 µM.

The term Kd denotes the free concentration of one partner at which half of the binding sites on the other are occupied at equilibrium, for simple one-to-one binding.
